# Experiment: yeast display, Sf9 membrane polyspecificity reagent, FACS + sequencing; frameworks hold sequencing errors
# Summary of the method: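 After 36–48 hours of galactose induction, yeast (Saccharomyces cerevisiae BJ5465) displaying a synthetic nanobody library were stained at 4 °C for 1 hour with 10% biotinylated, detergent-solubilized Sf9 membrane reagent. Streptavidin microbeads enriched the stained cells before FACS sorting into low and high (top ~1%) gates on anti-HA and streptavidin fluorescence. Each clone's polyreactivity label reflects its gate of origin.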
row,Sequence,polyreactivity (PSR sort gate)
1,QVQLVESGRGLFQAGGSLRLSCAPSGIIIVNYAMGWYRQAPGKERELVAAITTSGGSTYYADSVKGRFTISRDHAKNTVYLQMNSLKPEDTAVYDCAKKSSLFKHVVRYDYWGQGTQVTVSS,low polyreactivity
2,QVQLVESGRGLVHAGGSHRISCAASGRTFYYYAMGWYRQAPGKERELVAAITRGGSTNYADSVKGRFTISRDNAKITVYLQMNSLKPEDTAVYYCAQPWFYQNRGYDYWGQGTQVTVSS,low polyreactivity
3,QVQLVESGRGLVQAAGSLRLSCASSGSTYFGNTMVWYRQAPGKERELVATITRRGGTTYYADSVKGRFTISRDNAKNSVFLQMNSLKPEDTAVYYCAKRGPYTKYDYWGQGTQVTVSS,low polyreactivity
4,QVQLVESGRGLVQAGGSLRISCAASGSTFGYYAMGWYRQAPGKERELVAAITSTGRTKYADSVKGRFTISRDNAKNTVYLQMNSLKPEDTAVYYCAADIWGQGTQVTVSS,high polyreactivity
5,QVQLVESGRGLVQAGGSLRISCAPSGITFGRYVMGWYRQAPGKERELVAVISRGGSTNYADSVKGRFTIARDNAKNTDYLQMNSLKPEDSAVYYCAADEWIVHDGYYSSYYYWGQGTQVTVSS,low polyreactivity
6,QVQLVESGRGLVQAGGSLRLICAASGSIFFYYAMGWYRQAPGKERELVAVITSGGSTNYADSVKGRFTISRDNAKNTVYLQMNSLKPEDTAVYYCNADGYGYFTVREFLDYDYWGQGTQVTVSS,low polyreactivity
7,QVQLVESGRGLVQAGGSLRLSCAACGRIFYRYTMGSYRQAPGKERELVAAITRGGNTYYADSVKGRFTISRDNANYTVYLQMNSLKPEDTAVYYCAKKAPSDRNNYWGQGTQVTVSS,high polyreactivity
8,QVQLVESGRGLVQAGGSLRLSCAASAVSFISYAMGWYRQAPGKERELVAAISRGGSSTYYADSVKGRFTISRDNAKNTVYLQMNSLKPEDTAVYYCNKAYHRRDSEFGYSGQGTQVTVSS,high polyreactivity
9,QVQLVESGRGLVQAGGSLRLSCAASGFIFAYYAMGWYRQAPGKERELVAAITRSGGGTKYADSVKGRFTISRDNAKNTVYLHMNSLKPEDTAVYYCAARWYRQLRDLDYWGQGTQVTVSS,high polyreactivity
10,QVQLVESGRGLVQAGGSLRLSCAASGFTFGYYAMGWYRQAPGKERELVAAISASGASTYYADSVKGRFTISRDNAKNTVYLQMTSLKPEDTAVYYCAARPGQLTSPVTRTRYNYWGQGTQVTVSS,low polyreactivity
11,QVQLVESGRGLVQAGGSLRLSCAASGFTFYYYANGWYRQAPGKERELVAAISIGGSTYYADSVKGRFTISRDNAKNTVYLQMNCLKPEDTAVYYCNVVFTYWPPGTARYDYWGQGTQVTVSS,high polyreactivity
12,QVQLVESGRGLVQAGGSLRLSCAASGFTLWIYAKGWYRQAPGKESELVAAITWSTGSTYYADSVKGRFTISRDNAKNTVYLLMNSLKPEDTAVYYCPAEFHWWYAGYDYGYWGQGTQVTVSS,low polyreactivity
13,QVQLVESGRGLVQAGGSLRLSCAASGFTQPANGMGWYRQAPGIERELVAAISFIAGSTYYADSVKGRFTISRDNAKNTVYLQMNSLKPEDTAVYYCATLFPPSTIYDYWGQGTQVTVSS,low polyreactivity
14,QVQLVESGRGLVQAGGSLRLSCAASGIIFGGYSMGWYRQAPGKERELVAAISGIGSRTYYADSVKGRFTISRDNAKNTVYLQMNSLKPEDTAVYYCNADQVYGYNYWGQGTQVTVSS,high polyreactivity
15,QVQLVESGRGLVQAGGSLRLSCAASGIIFYENAMGWYRQAPGKERELVADITQSGGSTYYADSVKGRFTISRDNAKNTVYLQMNSLKPEDTAVYYCAADGYDPYGGLYDYWGQGTQVTVSS,low polyreactivity
16,QVQLVESGRGLVQAGGSLRLSCAASGRIFRYYAMGWYRQAPGKERELVATITDGGSTSYADSVKGRFTISRDNAKNTVYLQMNSLKPEDTAVYYCARDPLPSYWKVWSRPTFDYWGQGTQVTVSS,low polyreactivity
17,QVQLVESGRGLVQAGGSLRLSCAASGRIFTHYAMGWYRQAPGKERELVAAITSSSGSTYYADSVKGRFTISRDNAKNTVYLPMISLKPEDTAVYYCAASRYGKNGKFHYWGQGTQVTVSS,high polyreactivity
18,QVQLVESGRGLVQAGGSLRLSCAASGRIFVSNVMGWYRQAPGKERELVATITIGGITYYADSVKGRFTISRDNAKNTVYLQMNSLKPEDTAVYYCAADRRRFSPYGLYIHPGFDYWGQGTQVTVSS,low polyreactivity
19,QVQLVESGRGLVQAGGSLRLSCAASGRTFDPYAMGWYRQAPGKERELVAAITSGDDTYYADSVKGRFTISRDYAKNTVYLQMNSLKPEHTAVYYCAADSFTPDYYYHDYWGQGTQVRVSS,low polyreactivity
20,QVQLVESGRGLVQAGGSLRLSCAASGRTFVYYAMGWYRQAPGKERELVAAISRSGSTYYADSVKGRFTISRDNAKNTVYLQMNSLKPEDTAVYYCARPGGPDRTSSPYPYPYGYWGQGTQVTVSS,low polyreactivity
21,QVQLVESGRGLVQAGGSLRLSCAASGSIFKNYAMGWYRQAPGKERELVAAITRGTYYADSVKGRFTISRDNAKNTVYLQMNSLKPEDTAVYDCYREYWGRGYYRVRGEYDYWGQGTQVTVSS,low polyreactivity
22,QVQLVESGRGLVQAGGSLRLSCAASGSIFSYYAMGWYIQAPGKERELVAAITVRGGSTYYADSVKGRFTISRDNAKNTVYLQMNSLKPEDTAVYYCAAVPGYTHLWGGPFDYWGQGTQVTVSS,low polyreactivity

row,Sequence,polyreactivity (PSR sort gate)
1,QVQLVESGRGLVQAGGSLRLSCAASGSILTYYTMGWYRQAPGKERELVAAITRRGGSTYYADSVKGRFTISRDNAKNTVYLQMNRLKPEDTAVYYCNRVLSYHRHKLGMGYWGQGTHVTVSS,high polyreactivity
2,QVQLVESGRGLVQAGGSLRLSCAASGSTFAGYVMGWYRQAPGKERELVAAISGRGGNTYYADSVKGRFTISRDNAKNTVYIQINSLKPADTAVYYCAANLSRRYGYWGQGTQVTVSS,high polyreactivity
3,QVQLVESGRGLVQAGGSLRLSCAASGSTFWNNGMGWYRQAPGKERELVAAINWSGDSTYYADSVKGRFTISRDNAKNTVYLQMNSLKPEDTAVYYCAAGYYTYSRRSSFFVAYGYWGQGTQVTVSS,low polyreactivity
4,QVQLVESGRGLVQAGGSLRLSCADSGRTFGYYGMGWYRQAPGKEREFVAAITRSGGSTYYADSVKGRFTISRDHAKNTVYLQMNSLKPEDTAVYYCAAAHLFTRSRPYDYWGQGTQVTVSS,high polyreactivity
5,QVQLVESGRGLVQAGGSLRLSCAPSGFTFNVNAMGWYRQAPGKERELVAAISSSGTRTYYADSVKGRFTISRDNAKNTFYLQMNSLKPEDTAVYYCGASGQAYSGDRMYYWGQGTQVTVSS,high polyreactivity
6,QVQLVESGRGLVQAGGSLRLSCASSGSIKQNAMGWNRQAPGKETELVAAIDWDGSSTYYADSVKGRFTISRDNAKNTVYLQMNSLKPEDTAVYYCAKGWYRIKRNDYWGQGTQVTVSS,low polyreactivity
7,QVQLVESGRGLVQAGGSLRLSCDASGFIFPWYAMGWYRQAPGKERELVAAITSGGSTTYADSVKGRFTISRDNAKNTVYLQMNSLKPEDTAVYYCAAAYPWGDYGVSDYDYWGQGTQVTVSS,high polyreactivity
8,QVQLVESGRGLVQAGRTLRLSCAASGFIFQWYTMGWYRQAPGKDRELVADIRSGGDTNYADSVKGRFTISRDTAKNSVYLQMYSLKPEDTAVYYCATETFFPLRRASYGRKLGYWGQGTQVTVSS,low polyreactivity
9,QVQLVESGRGLVQAGVSLRLSCAASGSIFEQYAMGWYRQAPGKERELVAAITISGGGTFYADSVKGRFTISRDNAKNTVYLQMNSLKPEDTAVYYCAKRGYYFWSRKYGYWGQGTQVTVSS,low polyreactivity
10,QVQLVESGRGLVQEGGSLRLSCAASGRNVVFYTMGWNRQEPVKERELVATISIRGSTYYADSVKGRFTISRDNAKNTVYLKMNSLKPEDTAVYYCAAVYYSYYSFSYNYWGQGTVVTVSS,low polyreactivity
11,QVQLVESGVGIGQAGGSLRLTCAASGRTVSKYGKGWYRHAPGKEREMVAAISGRGGSTYYADSVKGRFTISRDHAKNTVYLQMNSLNPEDNAVYYCAQDLSYRPHGHGDGHYDFWGQGTQVTVSS,low polyreactivity
12,QVQLVESGVGIVQAGGSLRLSCAASGSTYGYNAMGWYRQAPGKESEFVARIRSSGSTTYADSVKRRFTISRDNAMNTVYLLMNSLNPEDNAVYYWAARRYFYLVVYYSWGQCTQVTVSS,high polyreactivity
13,QVQLVESGVGIVQAGGSLRLSSAPSGRTFTWYAMGRTRQAPGKERELVAAITNGGRTYADSVKGRFTISRDNAKNTVYLQMNSLKPEDTAVYYCAKVQYRGYLPHQRGRERDYDYWGQGTQVTVSS,low polyreactivity
14,QVQLVESGVGIVQAGGSLRVSCAASGRIFYYYAMGWYRHAPGKERELVAVINSGDSTNYADSVKGRFTISRDNAKNSVYFQMNSLKPEDTAVYYCAKGVISDLDYWADYDYWGQGTQVSVSS,low polyreactivity
15,QVQLVESGVGLFQAGGSLRLSCAASGRIFTLYTMGWYRQAPGKEREFVAALSRTGGRTYYADSVKGRFTISRDNAKNTVYLQMNSLKPEDTAVYYCAARSQSYTTHRYYYWGQGSQVTVSS,high polyreactivity
16,QVQLVESGVGLFQAGGSLRLSCAPSGSTFIGYAMEWYRQAPGKERELVAAISWSGGRTYYADSVKGRFTISRDNAKNTVYLQMISLKPEDTAVYYCNTVPYRISVQFNYWGQGTQVTLSS,high polyreactivity
17,QVQLVESGVGLLQAGGSLRLSCADSGRIISGNAMVWYRQAPGKEREMVAAISSGGSTYYADSVKGRFTISRDNAMNTVYLQMNSLKPEATAVFYCNKRRGRKWPGNFSVVKLLMGSWGQGTQVTVSS,low polyreactivity
18,QVQLVESGVGLVQAAGSLRLSCAASGSTFSSYAMGWYRQAPGKERELVAVISSRGSRTYYADSVKGRFTNSRDNAKNSVYLLMNSLKPEDTAVYYCAARAVKQYGNSYESWGQGTQVTVSS,high polyreactivity
19,QVQLVESGVGLVQAGGRLRLSCAASGLIFNDNMGWYRQSPGKEREVVAAISSSGGSTSYADSVKGRFTISRDNAKNTVYLQMNSLKPEDTAVYYCAADSYPAYLGFVGFDYWGQGTQVTVSS,low polyreactivity
20,QVQLVESGVGLVQAGGRLRLSCAASGRIIYIYAMGWYRQAPGKERELVAAITASSGSTNYADSVKGRFTISRDNAKNTVYLQMNSLKPEDTAVYYCSAAPSRTLLRQTKYYYWGQGTQVTVSS,low polyreactivity
21,QVQLVESGVGLVQAGGSLGLTCAASGSIFYRYTMGWYREAPGKERELVAAISSDGDSTYYADSVKGRFTISRDNAKNTVYLQMNSLKPEDTAVYYCAADLEPYIGYHFYYWGQGTQVTVSS,low polyreactivity
